In the RNAGym collection of RNA variant scans (doi:10.1073/pnas.2313332121):

B1: TPR t1 (parent)
chain: GACCAAUCUGCCCUCAGAGCUCGAGAACAUCUUCGGAUGCAGAGGAGGCAGGCUUCGGUGGCGCGAUAGCGCCAACGUCCUCAACCUCCAAUGCAUCCCACCACAUGAUGAUGCCUGAAGAGCCUUGGUUUUUUG

Variants of: B1
Test: polymerase ribozyme fitness, log enrichment relative to wild type (log ratio); higher = more active; in vitro selection for triplet polymerase activity
Procedure, shortened: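 A single round of triplicate in vitro selection, including frozen incubation at −7 °C, was applied to PCR-built, transcribed mutant libraries of each subunit of a heterodimeric triplet polymerase ribozyme. Illumina sequencing of input and output libraries retained genotypes with ≥10 input reads and ≥1 read per output. Fitness is the base-2 logarithm of genotype enrichment divided by wild-type enrichment, from inverse-variance-weighted replicate averages.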

Variant	polymerase ribozyme fitness (log ratio)
G17C A43U G61A U87G G120C	-1.48
G17C G60C	-4.24
G17C G60A	-4.31
A18C U131A	-2.1
G17U A118U	-3.56
G17U C114A	-5.05
A18C U55G	-1.99
A18C U55C	-3.52
G17U A111G U133G	-2.2
A18G G36U C56G	-6.14
G17U G61A C72A C89A	-4.9
A18C U125G	-3.63
G17C C28A G63A G120C C123G	-6.85
G17C C62U	-4.67
A18C C49A G60U U106A A111C	-5.37
A18C U78C	-1.87
G17A G47U U54C G71C G77U G117C	-8.04
G17U A43U	-3.34
G17A U78C C94U	-3.74
G17U U87A	-2.81
G17U U87G	-2.25

Variant	polymerase ribozyme fitness (log ratio)
A18G C101U C114U U129A	-5.75
G17U C73G	-2.39
G17U G52C G77U C123U	-2.34
A18G A43C C53A G63U	-5.8
G17C C20G C73A C88U C99A A100C	-4.19
A18G C49A C79U G120C G128U	-5.04
G17U G45C C62U	-4.56
G17A U59C G69U G120U	-2.26
A18C C49G	-3.27
G17C C104A	-6.53
G17A U96C	-3.36
A18G A37G A66U C94U G113C G117A	-4.01
G17U C101U	-2.53
G17U C20A G61U U87A	-4.07
G17U C40G C89G	-6.24
A18C G19A G71U C104U C115A	-0.527
A18C A50C G58A C97U	-5.7
A18G A68U U87G U109A	-5.24
A18G C82A	-4.16
G17U C85A	-3.6
A18G G60U U96G A108U	-7.14

Variant	polymerase ribozyme fitness (log ratio)
G17C A29U	-6.04
G17C A29G	-4.75
G17U A27U G61U	-6.16
A18U A74U U78C A111C	-4.61
A18U A91G	-1.85
A18G G122A	-3.35
G17U C124G G128C	-1.84
A18C U59A C89U G122A	-3.38
A18C U54G C123G	-0.39
G17U C70G C82G C124A U131G	-4.66
A18C G36C G57U	-4.25
A18C G19A C85U G120A	-3.39
A18C U106A	-3.06
A18C C101A C123U G127A	-4.43
A18U A41U C56U C72A U133A	-3.75
G17U U87A U106A G128A	-3.83
A18U A37C C82G U92C U116A A121G	-5.42
A18U A37U U78G A84U U87A	-4.45
G17U A37U G60A	-2.43
A18G C56G A83U G110C	-4.59
G17C C72U C101A C115A C123A	-5.23

Variant	polymerase ribozyme fitness (log ratio)
G17C G57A C124U	-5.29
G17U U38A G71C U125A	-4.76
A18G C56U	-2.25
G17C U87A	-3.72
A18G C62U C86G	-4.96
A18U A83C C94G C115G C123G U134G	-1.77
G17A G61A C64U C73U A75C	-4.03
G17U A18G C56G A84G U131G	-5.98
A18C C22U C40U G71U A118U	-6.12
A18G U78C G117U C123A C124G	-1.41
A18G G69U U81C G107U	-3.65
A18C C20A U55C G57A G63A	-4.91
G17U C56G	-3.08
G17U C56U	-2.12
A18G C62U	-2.68
G17U G69A C114G	-5.6
G17A U131A	-1.99
G17C G39A C64U	-4.45
G17C G120C	-1.58
A18G C102G G110U	-5.75
